Measured values as given in the supplement of paper PMC12764529.
± gives the half width of the 95% confidence interval.

experiment: folding stability dG unfold (combined trypsin and chymotrypsin); higher = more stable
Protocol: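 Folding stability of de novo designed mini-proteins (<80 aa, no Cys; designed by TrROS, TrMRF, ProteinMPNN and the joint model) was measured by cDNA display proteolysis with trypsin and chymotrypsin. Each protease was used at 11 concentrations in a threefold dilution series plus a no-protease condition. K50 was inferred by Bayesian fitting of sequencing counts, and dG unfold was derived against a sequence-predicted unfolded-state K50 (Tsuboyama et al. method). Sequences shown include variable-length N-terminal GS-type padding (SAGGSAGG...) inside a display construct carrying a PA tag. Rows were kept only if the AF2 dimer inter-PAE was >15, to exclude likely homo-oligomers.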

“EPEYVVFVDINPVFTRVDENGNVLEEFPRKVPYTGPGKDPEKVREELEREYGPPVKILKTLPKSEVDAGLLS [r1_493_JUSTAS]” and “GMRPVTATIEIGPNGKLTLQPAVGPSTVVPVKSKEEGIAVVKELVPPDRPITLTFYEKSKKISTEPIEIPPS [r1_276_JUSTAS]” cannot be ordered by “folding stability dG unfold” value: < -1 kcal/mol for the first, < -1 kcal/mol for the second.

First: KVPAGVEDVKVVKGPLTVKITAPVKNPNVPIKVGNKDGKVVSEKWKVDKAAGKVTVEVPVKKANEVTFNPES [r1_138_TrMRF]
Second: MKIVIDKDGNIRIEIIDKDGKKITLTLPVKTLEEALQKIKDLIRELFPDAKDLKVKVVEVKDGYVVIEVEPS [r1_389_TrROS_Hall]
The “folding stability dG unfold” value of the first is lower: < -1 kcal/mol for the first, > 6 kcal/mol for the second.

Compared with “PIITVSSLEELKKAIKELVEKIVEEAKKAGYPDKKVIVSIPVVLIDEKTGKPKILPILIEIYPDGTVKIYGS [r1_316_TrMRF]”, “PINPEIAEKLKVAIANKLKEAGYKVKSVSISPLPDGTISGKVGDKTVTLPLPNGGTAGISVEAEKVSPEEAS [r1_31_TrMRF]” is lower in “folding stability dG unfold” value: > 6 kcal/mol for the first, < -1 kcal/mol for the second.

“SADWYYWKNPKDGKEHTVDPEELSPEFAKKGIEPEEPVPPVINIDVDSAEQADELADEFPNKVQVQPNGSAG [r14_638_TrROS]” and “SAGAKLYTVKAPGSSELLKGLKEKGVEILGTEENVVVVKVPVVPPLTPEAIEEAKKEGLTLEEAIKKASAGG [r19_115_TrMRF]” cannot be ordered by “folding stability dG unfold” value: < -1 kcal/mol for the first, < -1 kcal/mol for the second.

“SAGGEFKLKREEDPDGERKITLEFPGWPYEVVIPKNAKDLPPGNPIYVRGGGGTRTMPIKDLLPELLNSAGG [r13_97_TrROS]” and “SAGGEGEELIIPSSFPLEKIEELEKAHPDAKAEIVEINLRGPVLLPGGGVRPVPSFLKVRLYRREERSAGGS [r8_172_TrMRF]” cannot be ordered by “folding stability dG unfold” value: < -1 kcal/mol for the first, < -1 kcal/mol for the second.

“SAGGGGMTVEPVAERRFPSGRRITFYRRELPTPTVLEDVVVEYPDGSVRTITVPVGEEAAAVAAVLASAGGS [r16_588_JUSTAS]” and “SAGGGSSMSPISDQQTSSSLPDGTTVTRTTTTYPTSVLVTTTTTDPATGAPTTTTTTYTTPGSSVAGSAGGS [r16_419_JUSTAS]” cannot be ordered by “folding stability dG unfold” value: < -1 kcal/mol for the first, < -1 kcal/mol for the second.

“SAGGGWEKIPITPNDKNQAKEIADEFADKLQQDPGIPKEVEIDVQPPPNNQYWIEVEYPGKKLEIPISAGGS [r16_356_TrROS]” and “SAGGIRMPPGQTQTFKLPGRKIEVHMGPNGPIYIEIENPGNGEPVEVPMRGDMTIDEMADAILDKLGSAGGS [r8_158_TrROS]” cannot be ordered by “folding stability dG unfold” value: < -1 kcal/mol for the first, < -1 kcal/mol for the second.

“SAGGKDAIVNVVEIPIKIEVKTKTKNPILPDGIPIPETELEVKIEIPIKVKPVKVKLEKPGKIVSVEDSAGG [r13_148_TrMRF]” and “SAGGKPMIHINMEENPNGNPYMRVQVMRMDPKNNGWKPVEEVRFDSPQDMRDEAKELADKEGVYLMISAGGS [r16_512_TrROS]” cannot be ordered by “folding stability dG unfold” value: < -1 kcal/mol for the first, < -1 kcal/mol for the second.

“SAGGMEEIAEKLPVTKIETLEVDPEPPVVKVKLTLKDESGTEKEIELTIELPPEPLPVPKFPPERILLSAGG [r13_608_JUSTAS]” and “SAGGMIVLEFTDPSELEKLEEKVEEIKEELIKEGIKPPNVEIKVTRTTRKLPNGTERYTAPVSIKLPSAGGS [r16_591_JUSTAS]” cannot be ordered by “folding stability dG unfold” value: < -1 kcal/mol for the first, < -1 kcal/mol for the second.

“SAGGMKTIEYPVVMDEEEAVKLVEELVAKAKAEGEETVVKVEVYRIGKGPDGVPTREKLGTYEVEVPGSAGG [r13_974_JUSTAS]” and “SAGGMKTIKLPPFTEEELEKVIEEAEKNPNSDVKITLPEGKEYYIKPPGKLKELKVEELPPLPESLESAGGS [r16_248_JUSTAS]” cannot be ordered by “folding stability dG unfold” value: < -1 kcal/mol for the first, < -1 kcal/mol for the second.

“SAGGMKTVVTTEPATFDATDPNTGVPIGTVTIGPVVTTKPPNAVTTHYTFRIGGTEVATSTTTNPGLASAGG [r13_758_JUSTAS]” and “SAGGMRLADTLEEVENAAPGEIVALRAPDPLTPRPVVLVFRNPDGELGPLAYADADGNIHLPEELKEAGSAG [r5_490_TrMRF]” cannot be ordered by “folding stability dG unfold” value: < -1 kcal/mol for the first, < -1 kcal/mol for the second.

“SAGGMSIRELLKEKGIPIKVENEPTDGRPRMKITIQDNDKPVKIDMPMDDPERMIRDAAKELGLKPISAGGS [r8_226_TrROS]” and “SAGGMTLEEVRALAQRVSREPLPGGGSRWVVTFPRPVPGGPAAPVTREIPVPADRPDATEEEVLARLVSAGG [r13_319_JUSTAS]” cannot be ordered by “folding stability dG unfold” value: < -1 kcal/mol for the first, < -1 kcal/mol for the second.

“SAGGMTSEVIETTEEEPERLIKKTFKVTYDENGTPKPELLKVETSPVPEEEIDPSNAPKEKAEKLGLLSAGG [r13_964_JUSTAS]” and “SAGGMVVELPSGLSPEELERAAEEIAAELPRRGVDPVEVTIEPVREVAPPDGPPVRLYRITIDTVPPSAGGS [r16_266_JUSTAS]” cannot be ordered by “folding stability dG unfold” value: < -1 kcal/mol for the first, < -1 kcal/mol for the second.

“SAGGNKITIEVNMNPEEGYYMVPIEIPRRDPNGEPEKRKIEVMVPMSPNAQEKAKNLANKLGIDKIYSAGGS [r8_381_TrROS]” and “SAGGPGKYRVIFYPKDTDKPIEADVPASHIKKFDPKNNFIEISAPPGPTLTIPDPDKVKKVIIEPIPSAGGS [r8_111_TrMRF]” cannot be ordered by “folding stability dG unfold” value: < -1 kcal/mol for the first, < -1 kcal/mol for the second.

“SAGGPNFEIEPEWDPDNGIVKETIKVPPGMTPEAINDALEIEFPDGMEVQIKPIKDGTIKVYMRMPKSAGGS [r8_255_TrROS]” and “SAGGPPKIKITDIRPNKGHMRYKIKDPNKEVEIHMHGNSMHIEYPDGKEKTFDGPGSFEDAAKRIIEKSAGG [r13_98_TrROS]” cannot be ordered by “folding stability dG unfold” value: < -1 kcal/mol for the first, < -1 kcal/mol for the second.

“SAGGPPKKIEDIKIEDWRYDPENNQVTNTIELENDNGKEREIDVQMPNEDMEDMPPEEMLKAAKDFIDSAGG [r13_512_TrROS]” and “SAGGRGPGLPVSERKIVETRDLDPDEVSEEEIAERIKEENPDAVVEELEVDTKESKAVFKIKVKKLESAGGS [r8_202_JUSTAS]” cannot be ordered by “folding stability dG unfold” value: < -1 kcal/mol for the first, < -1 kcal/mol for the second.

“SAGGRYLTLRIPPNHPGDIDIEPVPADDMPPGWGYKIYSPKKGHTQTFPLDNADELLDHPGIDEIEPVSAGG [r19_302_TrROS]” and “SAGGSAASRVSVEKLPNGTVVTPVEVEVTTYKPYPSYDGTPTTVPVTTRTTRTVTTEGNVVTTEVASAGGSA [r15_883_JUSTAS]” cannot be ordered by “folding stability dG unfold” value: < -1 kcal/mol for the first, < -1 kcal/mol for the second.

“SAGGSAATVVDPSTGSTYTFTPEGSGYRITRTLVTPDPTSDAVSTAPTTELLPPSEIPPELLARLSSAGGSA [r15_703_JUSTAS]” and “SAGGSAEKPIPFGNYQIRIHEIDPKEGKITIHVPDNMPPNMKEQARDWLQERGLPIEVEPVPAEDISAGGSA [r15_570_TrROS]” cannot be ordered by “folding stability dG unfold” value: < -1 kcal/mol for the first, < -1 kcal/mol for the second.

“SAGGSAFFRIKVEKNNGKKREIMFPIPENHDPSEAREMVKELAKNIARKQGHPNVPIKVTDIEPFPSAGGSA [r15_463_TrROS]” and “SAGGSAGGAEAVEAAKAKLPPDEERTVVVPDPDDPSRVTTYTLTARGDEVEVPVTTEPVPPGLESAGGSAGG [r6_393_JUSTAS]” cannot be ordered by “folding stability dG unfold” value: < -1 kcal/mol for the first, < -1 kcal/mol for the second.

“SAGGSAGGDNKPLRVRIRSPANGQKMKFKIKPDKIEPGKTIEIKHGDKPHTFNINPAQIDELEPSAGGSAGG [r6_461_TrROS]” and “SAGGSAGGEKPLKVTIKVKEKRLTENGIPEEFEKEIVVEAPLEEATKLVKAIPKDKVVSVEVEGSAGGSAGG [r6_984_TrMRF]” cannot be ordered by “folding stability dG unfold” value: < -1 kcal/mol for the first, < -1 kcal/mol for the second.

“SAGGSAGGEVEEEALKVAEELRREGKTGPVEKTVDIVVKTPENVPIPLNITVTVEPPSGVVTVNSAGGSAGG [r6_102_JUSTAS]” and “SAGGSAGGFTFRDPENGRKITIEPQPNPDGPMYYNIEVRDPDNNENKTINFPMPLNEIEDLAKDSAGGSAGG [r6_996_TrROS]” cannot be ordered by “folding stability dG unfold” value: < -1 kcal/mol for the first, < -1 kcal/mol for the second.

Compared with “SAGGSAGGMITDADGNAFEVASAEPFELANGEPVIRFRFKGSGEIRTVPAADIPDGIPEEAKFESAGGSAGG [r6_370_TrMRF]”, “SAGGSAGGMKITEVTSEAPVPETGEVVRVAKTEDGSTITTVEYPGTGETRVYREKPDEVTPIALSAGGSAGG [r6_796_JUSTAS]” is higher in “folding stability dG unfold” value: < -1 kcal/mol for the first, -0.865 ± 0.79 kcal/mol for the second.

“SAGGSAGGMKTIPLPGWTPEEFREVIKKHGGTFTIERPGGEKVTVDFTPDSEPPPEEPHTLIISSAGGSAGG [r6_304_JUSTAS]” and “SAGGSAGGMPLRVDFRPSDSDEVTTRELPLTGDEEEARARVEAAAPPGVASVDLDPEAFRAAAASAGGSAGG [r6_889_JUSTAS]” cannot be ordered by “folding stability dG unfold” value: < -1 kcal/mol for the first, < -1 kcal/mol for the second.

“SAGGSAGGNTITLPLPDGRKLTIDMHPNPDGNMYVNIDVQTPGKEKEITVPMDNPAIREAVKELSAGGSAGG [r6_607_TrROS]” and “SAGGSAGGPKPAKIKEVPFKMRHPGNGQPHKMEIKEVRPDGMIEIDFPNGEEHRIPGMKIDEIESAGGSAGG [r6_435_TrROS]” cannot be ordered by “folding stability dG unfold” value: < -1 kcal/mol for the first, < -1 kcal/mol for the second.

“SAGGSAGGPPPLIVTIKLEHKREKPNGEPEKRKHEIIVDAPNEQADKLAKKMPPDNVEDVEIAKSAGGSAGG [r6_985_TrROS]” and “SAGGSAGGPPVVTKTDPNTGAVYTKVGDTWTSTPVPPPVVVRPVPLYDPDGRPLATGYTVLRLESAGGSAGG [r6_313_JUSTAS]” cannot be ordered by “folding stability dG unfold” value: < -1 kcal/mol for the first, < -1 kcal/mol for the second.

“SAGGSAGGPVIPTPSDLVVEVGKLSEELSFLSKSVRPNGPEELVFDSSVLVEEGVKVLKPSDRRSAGGSAGG [r6_586_JUSTAS]” and “SAGGSAGGSAAPVSEREVTLTGSGTPRVVPVRVLGEAASPSESIATEATLPDGRPLRLTLRESAGGSAGGSA [r18_54_JUSTAS]” cannot be ordered by “folding stability dG unfold” value: < -1 kcal/mol for the first, < -1 kcal/mol for the second.

For “SAGGSAGGSAASNGPLPVPLPETVIEAPLDEVPDEEIRARLPEELAEEFLRRMPPDATVLLSAGGSAGGSAG [r3_326_JUSTAS]”, the “folding stability dG unfold” value was < -1 kcal/mol.
